This note sets out measurements from article PMC7839251.

In this assay the target is N-terminal fluorescein labeled ubiquitin E3 ligase WWP2 (FAM-WWP2). Description: MST.

The Kd is the free concentration of one partner at which half of the binding sites on the other are occupied at equilibrium, for simple one-to-one binding. A low value points to higher affinity. Turning to “ubiquitin E2 conjugating enzyme UbcH5c (from UniProt P61077 1-147)”, the equilibrium dissociation constant (Kd) was 9.6 µM. This counts as single-digit micromolar.
